How the values were obtained:
[1] = biological target: T1, 人CLDN18.2 (hCLDN18.2), claudin-18 isoform 2 [Homo sapiens], NP_001002026.1 (human); test: cell-based or functional assay
[2] = biological target: T2, 鼠CLDN18.1 (mCLDN18.1), claudin-18 isoform A1.1 precursor, NP_062789.1 (mouse, UniProt P56857 1-264); test: cell ELISA on mCLDN18.1+ cells
T2 construct: also called 鼠CLDN18.1+ 细胞; mCLDN18.1+ cell
T2 sequence: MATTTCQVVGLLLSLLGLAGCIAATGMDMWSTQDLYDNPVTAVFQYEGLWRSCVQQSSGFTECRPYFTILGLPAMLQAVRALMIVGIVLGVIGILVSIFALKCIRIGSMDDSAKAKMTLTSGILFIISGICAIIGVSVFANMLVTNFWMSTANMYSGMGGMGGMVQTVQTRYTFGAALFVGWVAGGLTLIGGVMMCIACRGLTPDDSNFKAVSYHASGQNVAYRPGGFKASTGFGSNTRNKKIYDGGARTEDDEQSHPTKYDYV

[3] = biological target: T3, 鼠CLDN18.2 (mCLDN18.2), claudin-18 isoform A2.1 [Mus musculus], NP_001181850.1 (mouse, UniProt P56857 10-264); test: cell ELISA on mCLDN18.2+ cells (Table 23)
T3 construct: also called 鼠CLDN18.2+细胞; mCLDN18.2+ cell
T3 chain: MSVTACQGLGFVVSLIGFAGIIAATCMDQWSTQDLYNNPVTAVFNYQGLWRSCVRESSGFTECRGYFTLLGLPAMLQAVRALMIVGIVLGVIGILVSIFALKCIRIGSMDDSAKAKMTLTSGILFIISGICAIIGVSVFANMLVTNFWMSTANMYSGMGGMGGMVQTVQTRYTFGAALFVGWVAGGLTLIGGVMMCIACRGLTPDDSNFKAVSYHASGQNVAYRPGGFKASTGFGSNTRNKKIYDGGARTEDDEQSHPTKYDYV

[4] = biological target: T4, 人CLDN18.1 (hCLDN18.1), claudin-18 isoform 1 precursor [Homo sapiens], NP_057453.1 (human, UniProt P56856 1-261); test: cell ELISA on hCLDN18.1+ cells
T4 construct: No signal peptide limits stated for this entry; also called 人CLDN18.1+ 细胞; hCLDN18.1+ cell
T4 sequence: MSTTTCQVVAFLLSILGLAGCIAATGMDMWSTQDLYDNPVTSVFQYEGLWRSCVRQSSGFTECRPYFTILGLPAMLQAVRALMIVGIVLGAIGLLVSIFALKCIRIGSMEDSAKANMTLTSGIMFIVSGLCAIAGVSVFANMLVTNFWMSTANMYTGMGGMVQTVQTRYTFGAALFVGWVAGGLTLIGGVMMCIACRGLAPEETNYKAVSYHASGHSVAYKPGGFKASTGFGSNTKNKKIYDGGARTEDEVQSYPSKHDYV

[5] = biological target: T3, 鼠CLDN18.2 (mCLDN18.2), claudin-18 …; test: cell ELISA on mCLDN18.2+ cells
[6] = biological target: T3, 鼠CLDN18.2 (mCLDN18.2), claudin-18 …; test: cell ELISA on mCLDN18.2+ cells, against Ref
[7] = biological target: T4, 人CLDN18.1 (hCLDN18.1), claudin-18 …; test: cell ELISA, hybridoma supernatant on hCLDN18.1+ cells
[8] = biological target: T1, 人CLDN18.2 (hCLDN18.2), claudin-18 …; test: cell ELISA, hybridoma supernatant on hCLDN18.2+ cells
[9] = biological target: T1, 人CLDN18.2 (hCLDN18.2), claudin-18 …; test: cell ELISA on hCLDN18.2+ cells (Table 16a)

B1: Ab66 (L21, H61, hIgG1 Fc S239D/A330L/I332E) (antibody)
heavy: QVQLVQSGAEVKKPGSSVKVSCKASGYAFSNYLIEWVRQAPGQGLEWMGLINPGSGGTNYNEKFKGKVTITADKSTSTAYMELSSLRSEDTAVYYCARVYYGNTFAYWGQGTLVTVSSASTKGPSVFPLAPSSKSTSGGTAALGCLVKDYFPEPVTVSWNSGALTSGVHTFPAVLQSSGLYSLSSVVTVPSSSLGTQTYICNVNHKPSNTKVDKKVEPKSCDKTHTCPPCPAPELLGGPDVFLFPPKPKDTLMISRTPEVTCVVVDVSHEDPEVKFNWYVDGVEVHNAKTKPREEQYNSTYRVVSVLTVLHQDWLNGKEYKCKVSNKALPLPEEKTISKAKGQPREPQVYTLPPSRDELTKNQVSLTCLVKGFYPSDIAVEWESNGQPENNYKTTPPVLDSDGSFFLYSKLTVDKSRWQQGNVFSCSVMHEALHNHYTQKSLSLSPGK
light: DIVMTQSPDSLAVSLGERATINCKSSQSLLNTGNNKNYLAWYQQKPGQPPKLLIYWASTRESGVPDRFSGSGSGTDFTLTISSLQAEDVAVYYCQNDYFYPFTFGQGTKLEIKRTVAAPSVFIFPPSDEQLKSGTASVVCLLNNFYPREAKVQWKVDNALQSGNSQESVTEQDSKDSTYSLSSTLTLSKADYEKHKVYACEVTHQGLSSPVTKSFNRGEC
CDC EC50 (人血清补体对hCLDN18.2+细胞, LDH) [1]: 0.927 µg/mL

B2: Ab60 (L12, H51, hIgG1 Fc S239D/A330L/I332E) (antibody)
heavy: QVQLVQSGAEVKKPGSSVKVSCKASGYAFSNYLIEWVKQAPGQGLEWIGLINPGSGGTNYNEKFKGKATITADKSTSTAYMELSSLRSEDTAVYYCARVYYGNSFAYWGQGTLVTVSSASTKGPSVFPLAPSSKSTSGGTAALGCLVKDYFPEPVTVSWNSGALTSGVHTFPAVLQSSGLYSLSSVVTVPSSSLGTQTYICNVNHKPSNTKVDKKVEPKSCDKTHTCPPCPAPELLGGPDVFLFPPKPKDTLMISRTPEVTCVVVDVSHEDPEVKFNWYVDGVEVHNAKTKPREEQYNSTYRVVSVLTVLHQDWLNGKEYKCKVSNKALPLPEEKTISKAKGQPREPQVYTLPPSRDELTKNQVSLTCLVKGFYPSDIAVEWESNGQPENNYKTTPPVLDSDGSFFLYSKLTVDKSRWQQGNVFSCSVMHEALHNHYTQKSLSLSPGK
light: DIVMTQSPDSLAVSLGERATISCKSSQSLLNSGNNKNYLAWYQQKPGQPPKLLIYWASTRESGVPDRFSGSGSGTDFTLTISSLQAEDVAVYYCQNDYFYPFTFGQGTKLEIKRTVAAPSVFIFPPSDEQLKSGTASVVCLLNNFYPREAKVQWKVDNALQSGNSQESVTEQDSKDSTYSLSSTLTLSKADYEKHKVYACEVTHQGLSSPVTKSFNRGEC
ADCC EC50 (PBMC对hCLDN18.2+细胞, LDH) [1]: 0.431 µg/mL | CDC EC50 (人血清补体对hCLDN18.2+细胞, LDH) [1]: 0.973 µg/mL

B3: Ab36抗体 (antibody, human IgG1, kappa, V domains shown)
VH: QVQLVQSGAEVKKPGSSVKVSCKASGYAFSNYLIEWVKQAPGQGLEWIGLINPGSGGTNYNEKFKGKATITADKSTSTAYMELSSLRSEDTAVYYCARVYYGNTFAYWGQGTLVTVSS
VL: DIVMTQSPDSLAVSLGERATISCKSSQSLLNTGNNKNYLAWYQQKPGQPPKLLIYWASTRESGVPDRFSGSGSGTDFTLTISSLQAEDVAVYYCQNDYFYPFTFGQGTKLEIKR
notes: Ab6 with NS->NT in light CDR1 and heavy CDR3; hIgG1 / kappa
binding result [2]: no binding | EC50 [3]: 0.518 nM | Emax [3]: 2.18 | CDC EC50 (人血清补体对hCLDN18.2+细胞, LDH) [1]: 1.75 µg/mL

B4: 人源化Ab10抗体 (antibody, human IgG1, kappa, V domains shown)
VH: QVQLVQSGAEVKKPGSSVKVSCKASGYAFSNYLIEWVKQAPGQGLEWIGLINPGSGGTNYNEKFKGKATITADKSTSTAYMELSSLRSEDTAVYYCARVYYGNSFAYWGQGTLVTVSS
VL: DIVMTQSPDSLAVSLGERATISCKSSQSLLNSGNQKNYLTWYQQKPGQPPKLLIYWASTRESGVPDRFSGSGSGTDFTLTISSLQAEDVAVYYCQNDYFYPFTFGQGTKLEIKR
notes: Humanized, hIgG1 (356-358 DEL) / kappa; also called L14/H51
binding result [4]: no binding | binding result [2]: no binding | EC50 [3]: 0.371 nM | Emax [3]: 2.27

B5: Ab51抗体 (antibody, human IgG1, kappa, V domains shown)
VH: QVQLVQSGAEVKKPGSSVKVSCKASGYAFSNYLIEWVRQAPGQGLEWMGLINPGSGGTNYNEKFKGRVTITADESTSTAYMELSSLRSEDTAVYYCARVYYGNTFAYWGQGTLVTVSS
VL: DIVMTQSPDSLAVSLGERATINCKSSQSLLNTGNNKNYLAWYQQKPGQPPKLLIYWASTRESGVPDRFSGSGSGTDFTLTISSLQAEDVAVYYCQNDYFYPFTFGQGTKLEIKR
notes: hIgG1 (DEL) / kappa; also called L21/H64 DEL
binding result [2]: no binding | EC50 [3]: 0.474 nM | Emax [3]: 1.91 | CDC EC50 (人血清补体对hCLDN18.2+细胞, LDH) [1]: 2.12 µg/mL

B6: anti-hCLDN18.2抗体mab5b (重组表达) (antibody, human IgG1, kappa, V domains shown)
VH: QVQLQQSGAELIGPGTSVKVSCKASGYAFSNYLIEWVKQRPEQGLEWIGLINPGSGGTNYNEKFKGKATLTADKSSSTAYMQLSSLTSDDSAVYFCARVYYGNSFAYWGQGTLVTVSA
VL: DIVMTQSPSSLTVTAGEKVTMSCKSSQSLLNSGNQKNYLTWYQQKPGQPPKLLIYWASTRESGVPDRFTGSGSGTHFTLTISSVQAEDLAVYYCQNDYFYPFTFGSGTKLEKKR
notes: also called 鼠源抗体mab5b
EC50 [5]: 0.182 nM | EC50 [3]: 0.375 nM | Emax [3]: 2.17 | 结合活性 (EC50) 比Ref好的倍数 [6]: > 4 倍

B7: mab1 (初始杂交瘤克隆 F2A4, 上清) (antibody, V domains shown)
VH: EVQLLESGGGLVQPGGSLRLSCAASGFTFSSYGMGWVRQAPGKGLEWVAAITRDSSTNYGAAVKGRATISRDNSKNTLYLQMNSLRAEDTAVYYCAKDASNGYCWYTGRGSYSCGAHHIDAWGQGTLVTVSS
VL: SYELTQPPSVSVSPGQTARITCSGGYNGHYGWYQQKPGQAPVTVIYSNNQRPSGIPERFSGSSSGTTVTLTISGVQAEDEADYYCGGYDSSAGIFGGGTKLTVL
结合活性 (ELISA) [7]: 1.19 | 结合活性 (ELISA) [8]: 1.62

B8: mab3 (初始杂交瘤克隆 C6F9, 上清) (antibody, V domains shown)
VH: EVQLLESGGGLVQPGGSLRLSCAASGFTFRSYAMMWVRQAPGKGLEWVGEISSTGGSTYYGSAVKGRATISRDNSKNTLYLQMNSLRAEDTAVYYCAKSTYGATWKSADSIDAWGQGTLVTVSS
VL: SYELTQPPSVSVSPGQTARITCSGGYNGHYGWYQQKPGQAPVLVIYSNNQRPSGIPERFSGSSSGTTVTLTISGVQAEDEADYYCGGYDSSAGIFGGGTKLTVL
结合活性 (ELISA) [7]: 0.448 | 结合活性 (ELISA) [8]: 0.671

B9: Ab22 (轻链CDR1 NS-> TS, 重链 CDR3 NS-> NT) (antibody, V domains shown)
VH: EVMLVESGGGLVKPGGSLKLSCAASGFTFSSYTMSWVRQTPEKRLEWVATIIGGYGNTYYADSVKGRFTISRDSAKNTLYLQMISLRSEDTALYYCTRLGQTQRNAMDYWGQGTSVTVSS
VL: DILMTQSPSSLSVSAGEKVTMSCKSSQSLLNSGNQKNYLAWYQQKPGQPPKLLIYGASTRESGVPDTFTGSGSGTDFTLTISSVQAEDLAVYYCQNDYYYPFTFGAGTKLEL
EC50 [9]: 1.37 nM

B10: mab2 (初始杂交瘤克隆 F6B1, 上清) (antibody, V domains shown)
VH: EVQLLESGGGLVQPGGSLRLSCAASGFTFSSYGMSWVRQAPGKGLEWVAGIGSSGSDTWYADSVKGRFTISRDNSKNTLYLQMNSLRAEDTAVYYCAKDATNGYCWYTGRGSYSCGAHHIDAWGQGTLVTVSS
VL: SYELTQPPSVSVSPGQTARITCSGGSGSYGYYGWYQQKPGQAPVTVIYGTNKRPSGIPERFSGSSSGTTVTLTISGVQAEDEADYYCGGYDSSAGIFGGGTKLTVL
结合活性 (ELISA) [7]: 0.123 | 结合活性 (ELISA) [8]: 0.176

Source: patent CN110606891A (L&L BIOPHARMA CO LTD, dated 2019)
